The values below come from paper PMC9692554.

Common to all, as to conditions: EMSA: 20 mM Tris pH 8, 60 mM KCl, 1 mM EDTA, 12% glycerol, 2 mM DTT, 1 ug poly(dI-dC), 12.5 ng (legend: 12.5 nM) Cy5-DNA, +/-5 mM Ca2+, 1% agarose 0.5x TAE …
For orientation: In EMSA bound probe runs differently from free probe, usually more slowly.

Series [1] has as its target T1, pMarR (Gp0.7) WT (cyanophage P-SSP7) (UniProt Q58N47).
T1 sequence: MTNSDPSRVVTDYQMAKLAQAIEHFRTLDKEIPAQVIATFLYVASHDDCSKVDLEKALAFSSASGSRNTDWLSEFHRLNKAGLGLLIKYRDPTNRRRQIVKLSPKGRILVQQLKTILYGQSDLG
The experiment in a line: EMSA.

For series [2], the target named is T2, pMarR G106A G106A (cyanophage P-SSP7) (UniProt Q58N47).
T2 sequence: T1 sequence with G106A
The experiment in a line: EMSA.

Series [3] deals with T3, pMarR R67A R67A (cyanophage P-SSP7) (UniProt Q58N47).
T3 sequence: T1 sequence with R67A
The experiment in a line: EMSA.

For series [4], the target named is T4, pMarR S66A S66A (cyanophage P-SSP7) (UniProt Q58N47).
T4 sequence: T1 sequence with S66A
The experiment in a line: EMSA.

For series [5], the target named is T1, pMarR (Gp0.7) WT (cyanophage P-SSP7). The series can be described thus: DNase I footprinting.

Positions count from the first letter of the chain named.

In general, Kd refers to the concentration at which binding is half-saturated. For the sequence “CAGCATCAATACCTGGTAGGACATTTTCAACAGTTCCTAAAAAAATATCCCCGATTTGATATTGACCTTGTGCGACGATTAATTCATCAACTTGATCATCTGTGAGTAGTGCTGCAATACGCGCCTGCTCAGCTATTACAATTTGCTGAGAC (double strand) [rne Pi+]”, the Kd in series [1] is 320 nM. Also, the binding entry is recorded as “binds” in series [2], “no binding” in series [3] and “binds” in series [4].

On to “CAGCATCAATACCTGGTAGGACATTTTCAACAGTTCCTAAAAAAATATCCCCGATTTGATATTGACCTTGTGCGACGATTAATTCATCAACTTGATCATCTGTGAGTAGTGCTGCAATACGCGCCTGCTCAGCTATTACAATTTGCTGAGACATAAAAATTTTAAAGTATGTTTTGAATTTTTGAAAATCGATAAAAAGTAAATAATTACATATTTAATTTTTCGCTAGCAATTTCTTGAAAGC (double strand) [rne footprint fragment (Pi+ and part of Pi)]”, for which the binding result in series [5] is recorded as “binds”.
